Patent US20260158147A1 (published 2026)

Target: Pre-formed aBeta fibrils (UniProt P05067 672-713)
Assay: ELISA

EC50: 0.702 nM
B1: gantenerumab (antibody, V domains shown)
VH: QVELVESGGGLVQPGGSLRLSCAASGFTFSSYAMSWVRQAPGKGLEWVSAINASGTRTYYADSVKGRFTISRDNSKNTLYLQMNSLRAEDTAVYYCARGKGNTHKPYGYVRYFDVWGQGTLVTVSS
VL: DIVLTQSPATLSLSPGERATLSCRASQSVSSSYLAWYQQKPGQAPRLLIYGASSRATGVPARFSGSGSGTDFTLTISSLEPEDFATYYCLQIYNMPITFGQGTKVEIK
